Laboratory results from publication PMC2645672, “Mechanism of Neuronal versus Endothelial Cell Uptake of Alzheimer's Disease Amyloid β Protein” (PLoS ONE, 2009).

Assays:
[1] = test system: differentiated PC12 cells
[2] = test system: bovine brain microvascular endothelial (BBME) cells; experiment: Cellular uptake by flow cytometry in BBME cells; conditions: F-Aβ40 and AF633-Trf simultaneously, cells trypsinized
Method: Bovine brain microvascular endothelial (BBME) cells were obtained frozen from Cell Applications Inc. (San Diego, CA) and were grown in 75 cm^2 cell culture flasks coated with collagen. The growth medium was made of equal parts DMEM and F-12 Ham nutrient mix containing amphotericin B (2.5 µg/ml), HEPES (10 mM), donor horse serum (10%), penicillin (100 units/ml), and gentamicin sulphate (15 µm/ml). After reaching 70–80% confluency, the cells were harvested, seeded (80,000 cells/cm^2) on six-well cell culture plates coated with 0.01% rat tail collagen, and grown under 5% CO2 at 37°C.
(§1) In addition, flow cytometry studies were conducted to quantify the uptake of F-Aβ40 or F-Aβ42 and AF633-Trf by PC12 cells and BBME cells at 4°C or under ATP depleted conditions. At the end of these flow cytometry experiments, the cells were washed three times with ice-cold PBS, trypsinized, and centrifuged at 2000 ×g. The cell pellet was washed with and re-suspended in ice cold PBS, and analyzed.
(§2) FACScan (Becton Dickinson FACS canto, San Jose, CA) was equipped with 488 nm laser and 530/30 band-pass filter to analyze F-Aβ40 or F-Aβ42 as well as 633 nm laser and 660/20 band-pass filter to analyze AF633-Trf. […] The cellular fluorescence from this cell population was presented as histograms along with relevant statistical values such as geometric mean and coefficient of variance.

[3] = test system: differentiated PC12 cells; experiment: Cellular uptake by flow cytometry in differentiated PC12 cells; conditions: for Uptake at 4°C versus 37°C (histograms of cellular fluorescence), F-Aβ42 experiment: 15 µg/ml F-Aβ42 and 20 µg/ml AF633-Trf, 30 min, cells trypsinized
Method: Rat PC12 cells were plated on glass coverslips or coverslip-bottomed dishes and cultured in DMEM supplemented with: 10% fetal bovine serum, 5% horse serum, 4 mM glutamine, 200 units/ml penicillin, 200 µg/ml streptomycin, and 100 ng/ml nerve growth factor (NGF) (Harlan, Indianapolis, IN) at 37°C under 5% CO2. Uptake studies were conducted 5–7 days after plating, when the cells were well differentiated and the neurite growth was prominent.
The PC12 cells were dispersed in growth medium containing 100 ng/ml NGF (Harlan Bioproducts, Indianapolis, IN) and seeded at a density of 50,000/well in 6-well plates. On the seventh day, following sets of experiments were conducted on the differentiated PC-12 cells:
• To determine the linearity of F-Aβ40 uptake, PC-12 cells were pre-incubated in serum free DMEM for 30 min at 37°C and then incubated with DMEM solution containing 3–15 µg/ml F-Aβ40 for 30 min at 37°C. • To determine the saturability of F-Aβ40 uptake, the PC-12 cells were pre-incubated in 150 µg/ml of unlabeled Aβ40 for 30 min at 37°C, followed by a 30 min incubation in the same solution spiked with 15 µg/ml F-Aβ40.
At the end of these experiments, the cells were dissociated with trypsin and centrifuged at 2000 ×g. The cell pellet was washed with and re-suspended in ice cold PBS and analyzed by flow cytometry.
To examine the effect of temperature and cellular energy on the internalization of F-Aβ40 and F-Aβ42, the uptake studies were conducted at 4°C or under ATP depleted conditions. In the studies conducted at 4°C, steps outlined previously to investigate clathrin mediated endocytosis were repeated, but at 4°C. In ATP depletion studies, the PC12 cells or RPH neurons were pre-incubated for 30 min in glucose free DMEM containing 0.1% sodium azide and 50 mM 2-deoxy-D-glucose followed by the incubation with glucose free DMEM containing 20 µg/ml AF633-Trf and 15 µg/ml F-Aβ40 for 30 min at 37°C.
as §1, §2

[4] = test system: differentiated PC12 cells; experiment: Cellular uptake and localization by microscopy in differentiated PC12 cells; conditions: F-Aβ40 and AF633-Trf co-incubated, confocal
[5] = test system: wild type (WT) mouse brain slices; conditions: cited from earlier work
Method: The uptake of ^125I-Aβ40 in WT mouse brain slices at 4 or 37°C was determined following 15 min incubation in oxygenated KRB containing 5–900 ng/ml (0.02–3.5 µCi/ml) concentrations of ^125I-Aβ40. The 15 min incubation time was selected based on our earlier observations that ^125I-Aβ40 uptake in the brain slices was linear up to 15 mi ...

[6] = test system: differentiated PC12 cells; conditions: cited from earlier work

## F-Aβ40: fluorescein labeled human Aβ40
[1]
  Uptake in cells treated with filipin, inhibitor of caveolae mediated endocytosis: not significantly affected
[2]
  Cellular uptake in BBME cells at 4°C compared to 37°C (fluorescence intensities): decreased significantly
[3]; 150 µg/ml unlabeled Aβ40 + 15 µg/ml F-Aβ40 vs 15 µg/ml F-Aβ40 alone, 37°C
  Fluorescence intensity on co-incubation with unlabeled Aβ40 compared to F-Aβ40 alone (saturability): decreased
[3]; donor concentrations 3-15 µg/ml, 30 min at 37°C
  Dependence of accumulation on donor concentration: linear with the donor concentrations
[4]
  Cellular location after 15 min incubation: mainly confined to the cell membrane
[4]; 45 min
  Cellular location at the end of 45 min incubation: appeared to move into the cytosol
[4]; 60 min
  Intensity in the cells by the end of 60 min incubation: increased substantially

## 125I-Aβ40: human Aβ40 labeled with 125I using the chloramine-T procedure
[5]
  Time course of uptake in brain slices: linear up to 15 min
[6]
  Dependence of internalization by differentiated PC12 cells on donor concentration: linearly dependent upon the donor concentration
  Internalization by differentiated PC12 cells at 4°C: internalized even at 4 °C

## F-Aβ42: fluorescein labeled Aβ42
[3]
  Uptake at 4°C versus 37°C (histograms of cellular fluorescence), F-Aβ42 experiment: not significantly different

## AF633-Trf: Alexa Fluor 633 labeled transferrin, a clathrin mediated endocytosis marker [reference compound]
[1]
  Uptake in ATP depleted cells versus normal cells (microscopy): no detectable
[2]
  Cellular uptake in BBME cells at 4°C compared to 37°C (fluorescence intensities): decreased significantly
[3]
  Uptake at 4°C versus 37°C (histograms of cellular fluorescence), F-Aβ42 experiment: significantly lower
[4]
  Cellular location after 15 min incubation: juxta-nuclear region
